Test results from patent publication US20260250404A1.

Molecular target: human FcγRIa on the cell surface (transfected CHO-S cells, M0/M1 macrophages, hMDM, FcγRI effector reporter cells) (human) (UniProt P12314)
Experiment: flow cytometry on CHO-S cells transiently expressing human FcγRIa, PE goat anti-human IgG F(ab')2, % PE+ cells

human FcγRIa on the cell surface (transfected CHO-S cells, M0/M1 macrophages, hMDM, FcγRI effector reporter cells) (human), sequence (P12314 16-374): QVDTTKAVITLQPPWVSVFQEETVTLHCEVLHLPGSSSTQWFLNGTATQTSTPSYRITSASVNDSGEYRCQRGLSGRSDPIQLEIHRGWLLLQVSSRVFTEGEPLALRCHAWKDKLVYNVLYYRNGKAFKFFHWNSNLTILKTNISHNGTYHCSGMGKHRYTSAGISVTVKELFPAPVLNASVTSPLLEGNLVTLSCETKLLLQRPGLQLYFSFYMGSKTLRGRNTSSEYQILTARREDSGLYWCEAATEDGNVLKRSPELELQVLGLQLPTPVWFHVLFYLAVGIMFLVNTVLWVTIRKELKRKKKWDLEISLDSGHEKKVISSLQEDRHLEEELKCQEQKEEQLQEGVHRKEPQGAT

EC50 (read off the curve): 0.3 µg/mL
Substance: cemiplimab (antibody)
